Our source for the Ion Precursor Intensities, 5′ incubation (multiplex substrate profiling, cleavage), Ion Precursor Intensities, 15′ incubation (multiplex substrate profiling, cleavage) and Ion Precursor Intensities, 60′ incubation (multiplex substrate profiling, cleavage) values is patent publication US20220062148.

Data set [1] deals with T1, Peptide sequence FDNRVGKW
T1 chain: FDNRVGKW

The target of data set [2] is T2, Peptide sequence QAVRPNGM
T2 chain: QAVRPNGM

The target of data set [3] is T3, Peptide sequence QGKKAPXX
T3 chain: QGKKAP

In data set [4] the target is T4, Peptide sequence WGNRSPLE
T4 chain: WGNRSPLE

In data set [5] the target is T5, Peptide sequence XIARQPWN
T5 chain: ARQPWN

B1: Atlantic cod trypsin I (protein)
chain: IVGGYECTKHSQAHQVSLNSGYHFCGGSLVSKDWVVSAAHCYKSVLRVRLGEHHIRVNEGTEQYISSSSVIRHPNYSSYNINNDIMLIKLTKPATLNQYVHAVALPTECAADATMCTVSGWGNTMSSVADGDKLQCLSLPILSHADCANSYPGMITQSMFCAGYLEGGKDSCQGDSGGPVVCNGVLQGVVSWGYGCAERDHPGVYAKVCVLSGWVRDTMANY
With B1, the Ion Precursor Intensities, 5′ incubation (multiplex substrate profiling, cleavage) in data set [1], in data set [2], in data set [3], in data set [4] and in data set [5] was 0 throughout. Also, the Ion Precursor Intensities, 15′ incubation (multiplex substrate profiling, cleavage) in data set [1], in data set [2], in data set [3], in data set [4] and in data set [5] was 0 in each case. The Ion Precursor Intensities, 60′ incubation (multiplex substrate profiling, cleavage) turned out to be 165000 in data set [1]; 0 in data set [2]; 0 in data set [3]; 0 in data set [4]; 189000 in data set [5].
